According to patent US20260184793A1 (TJ BIOPHARMA SHANGHAI, published 2026):
Like-named read-outs stand apart in the source and are kept apart here.

Key:
[1] = target: T1, human PD-L1 expressed on cells (Raji cells overexpressing human PD-L1; CHO cells) (human, UniProt Q9NZQ7 19-290); experiment: cell-based or functional assay
[2] = target: T1, human PD-L1 expressed on cells (Raji …); experiment: flow cytometry, PD-L1 expressed on CHO or Raji cells
human His-PD-L1 [3] = target: T2, human His-PD-L1 (human, UniProt Q9NZQ7 19-238, limits assumed); experiment: ELISA: plate coated with human His-PD-L1, antibody titrated, goat anti-human IgG Fc HRP, OD450
T2 construct: also called human PD-L1
T2 sequence (Q9NZQ7 19-238 limits assumed): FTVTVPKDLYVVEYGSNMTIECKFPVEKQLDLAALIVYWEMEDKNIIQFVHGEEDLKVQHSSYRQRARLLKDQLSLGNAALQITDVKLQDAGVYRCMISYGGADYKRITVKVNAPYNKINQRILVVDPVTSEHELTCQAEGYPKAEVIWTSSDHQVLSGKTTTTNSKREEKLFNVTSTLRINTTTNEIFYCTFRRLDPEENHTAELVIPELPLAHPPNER
Protocol: Briefly, 100 μl anti-PD-L1 antibody at different concentrations was incubated in each well of 96 well plate pre-coated with human His-PD-L1, and then goat anti-human IgG Fc HRP was added and analyzed by coloring reaction of HRP with its substrate.

[4] = target: T1, human PD-L1 expressed on cells (Raji …); experiment: cell-based or functional assay; remark: listed apart in the source
[5] = target: T1, human PD-L1 expressed on cells (Raji …); experiment: flow cytometry on CHOK1-PDL1 cells (cell binding assay), GMFI
human His-PD-L1 [6] = target: T2, human His-PD-L1; experiment: ELISA blocking assay: antibody titrated together with Biotin-PD-1 on coated human His-PD-L1, Streptavidin-HRP, OD450
human His-PD-L1 [7] = target: T2, human His-PD-L1; experiment: as above; remark: listed apart in the source
[8] = target: T1, human PD-L1 expressed on cells (Raji …); experiment: flow cytometry on CHOK1-PDL1 cells (cell binding assay), GMFI; remark: listed apart in the source
human His-PD-L1 [9] = target: T2, human His-PD-L1; experiment: ELISA blocking assay: antibody titrated together with Biotin-PD-1 on coated human His-PD-L1, Streptavidin-HRP, OD450; remark: listed apart in the source
[10] = target: T1, human PD-L1 expressed on cells (Raji …); experiment: flow cytometry on Raji-PDL1 cells (cell binding assay), GMFI
Protocol: Binding capability of the anti-PD-L1 antibody of the present application was further evaluated by using Raji cells overexpressing human PD-L1. Briefly, 50 μl Raji cells overexpressing human PD-L1 were seeded into 96 well plate at a concentration of 2*10⁵ cells/well. […] Then the cells were washed twice by FACS buffer and supplemented with 100 μl PE-anti-hu IgG, followed by incubation on ice for 1 hour. After incubation, the cells in each well were collected and resuspended with 65 μl FACS buffer for analysis by flow cytometry.

human His-PD-L1 [11] = target: T2, human His-PD-L1; experiment: ELISA blocking assay: antibody titrated together with Biotin-PD-1 on coated human His-PD-L1, Streptavidin-HRP, OD450; remark: listed apart in the source

T1 sequence (Q9NZQ7 19-290): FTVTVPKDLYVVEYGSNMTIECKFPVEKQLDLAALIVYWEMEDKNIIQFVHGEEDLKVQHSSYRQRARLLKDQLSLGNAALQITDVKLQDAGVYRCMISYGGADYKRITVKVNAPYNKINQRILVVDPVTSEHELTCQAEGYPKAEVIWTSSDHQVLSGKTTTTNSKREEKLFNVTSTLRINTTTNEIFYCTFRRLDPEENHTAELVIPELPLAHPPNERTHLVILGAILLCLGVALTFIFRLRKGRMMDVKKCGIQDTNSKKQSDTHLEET

Binder	binding result [2]	binding result (human His-PD-L1 [3])	further results
112-VH47 (VHH) VHH: EVQLVESGGGLVQPGGSLRLSCAASGFTFSSGTQFSDSKIDWYRQAPGKGLVWVAGIFSTGSTIYEDSVKGRFTISRDNAKNTGYLQMNSLRAEDTAVYYCRVIGRGILAWGQGTLVTVSS			EC50 (read off the curve), NFAT-luciferase signal (RLU), CHO-PDL-1 aAPC and Jurkat-PD-1-NFAT [1]: ~0.6 nM
R21560103 (VHH, ELISA detection with anti-human IgG Fc implies a human Fc part that is not described) VHH: EVQLVESGGGLVQPGGSLRLSCAASGFTFSSGTQFSDSKIDWYRQAPGKGLVWVAGIFSTGSTIYEDSVKGRFTISRDNAKNTGYLQMNSLRAEDTAVYYCRVIGIGILAWGQGTLVTVSS	binds	binds	
R21560106 (VHH, ELISA detection with anti-human IgG Fc implies a human Fc part that is not described) VHH: EVQLVESGGGLVQPGGSLRLSCAASGFTFSSGTQFSDSKADWYRQAPGKGLVWVAGIFSTGSTIYEDSVKGRFTISRDNAKNTGYLQMNSLRAEDTAVYYCRVIGRGTLAWGQGTLVTVSS	binds	binds	
R21560102 (VHH, ELISA detection with anti-human IgG Fc implies a human Fc part that is not described) VHH: EVQLVESGGGLVQPGGSLRLSCAASGFTFSSGTQFSDSKIDWYRQAPGKGLVWVAGIFQTGSTIYEDSVKGRFTISRDNAKNTGYLQMNSLRAEDTAVYYCRVIGRGILAWGQGTLVTVSS			EC50 (read off the curve), NFAT-luciferase signal (RLU), CHO-PDL-1 aAPC and Jurkat-PD-1-NFAT [4]: ~0.5 nM; EC50 (read off the curve) [5]: ~3 nM; IC50 (read off the curve) (human His-PD-L1 [6]): ~0.8 nM
93-VH-6 (VHH) VHH: EVQLVESGGGLVQPGGSLRLSCAASGFTFTFRHYVMGWFRQAPGKEREFVAAISWSGSGSYYADSVKGRFTISRDNSKNTVYLQMNSLRAEDTAVYYCAADMTTRMSQASREYDYWGQGTLVTVSS			EC50 (read off the curve), NFAT-luciferase signal (RLU), CHO-PDL-1 aAPC and Jurkat-PD-1-NFAT [1]: ~0.7 nM
R21448517 (VHH, ELISA detection with anti-human IgG Fc implies a human Fc part that is not described) VHH: EVQLVESGGGLVQPGGSLRLSCAASGFTFTFRHYVMGWFRQAPGKEREFVAAISWSGSGSYYADSVKGRFTISRDNSKNTVYLQMNSLRAEDTAVYYCAADMTTEMSQDSREYDYWGQGTLVTVSS	binds	binds	
R21448515 (VHH, ELISA detection with anti-human IgG Fc implies a human Fc part that is not described) VHH: EVQLVESGGGLVQPGGSLRLSCAASGFTFTFYHYVMGWFRQAPGKEREFVADISWSGSGSYYADSVKGRFTISRDNSKNTVYLQMNSLRAEDTAVYYCAADMTTRMSQASDEYDYWGQGTLVTVSS			IC50 (read off the curve) (human His-PD-L1 [7]): ~0.8 nM
R21448508 (VHH, ELISA detection with anti-human IgG Fc implies a human Fc part that is not described) VHH: EVQLVESGGGLVQPGGSLRLSCAASGFTFTFYHYVMGWFRQAPGKEREFVAAISWSGSGSYYADSVKGRFTISRDNSKNTVYLQMNSLRAEDTAVYYCAADMTTRMSQDSREYDYWGQGTLVTVSS	binds	binds	
R21448519 (VHH, ELISA detection with anti-human IgG Fc implies a human Fc part that is not described) VHH: EVQLVESGGGLVQPGGSLRLSCAASGFTFTFRHYVMGWFRQAPGKEREFVAAISWSGSGSYYADSVKGRFTISRDNSKNTVYLQMNSLRAEDTAVYYCAADMTTRMSQDSDEYDYWGQGTLVTVSS			IC50 (read off the curve) (human His-PD-L1 [7]): ~0.8 nM
R21448509 (VHH, ELISA detection with anti-human IgG Fc implies a human Fc part that is not described) VHH: EVQLVESGGGLVQPGGSLRLSCAASGFTFTFYHYVMGWFRQAPGKEREFVAAISWSGSGSYYADSVKGRFTISRDNSKNTVYLQMNSLRAEDTAVYYCAADMTTRMSQASDEYDYWGQGTLVTVSS			binding result [8]: binds; binding result (human His-PD-L1 [9]): binds
R21448516 (VHH, ELISA detection with anti-human IgG Fc implies a human Fc part that is not described) VHH: EVQLVESGGGLVQPGGSLRLSCAASGFTFTFYHYVMGWFRQAPGKEREFVADISWSGSGSYYADSVKGRFTISRDNSKNTVYLQMNSLRAEDTAVYYCAADMTTEMSQDSDEYDYWGQGTLVTVSS			EC50 (read off the curve) [10]: ~0.4 nM; IC50 (read off the curve) (human His-PD-L1 [11]): ~0.7 nM
R21448514 (VHH, ELISA detection with anti-human IgG Fc implies a human Fc part that is not described) VHH: EVQLVESGGGLVQPGGSLRLSCAASGFTFTFYHYVMGWFRQAPGKEREFVADISWSGSGSYYADSVKGRFTISRDNSKNTVYLQMNSLRAEDTAVYYCAADMTTRMSQDSREYDYWGQGTLVTVSS			IC50 (read off the curve) (human His-PD-L1 [7]): ~0.6 nM
R21448505 (VHH, ELISA detection with anti-human IgG Fc implies a human Fc part that is not described) VHH: EVQLVESGGGLVQPGGSLRLSCAASGFTFTFRHYVMGWFRQAPGKEREFVAAISWSGSGSYYADSVKGRFTISRDNSKNTVYLQMNSLRAEDTAVYYCAADMTTRMSQDSREYDYWGQGTLVTVSS			EC50 (read off the curve) [8]: ~4 nM

Now from value to binder, other results behind:

binding result [2]	binding result (human His-PD-L1 [3])	Binder	further results
	binds	R21448506 (VHH, ELISA detection with anti-human IgG Fc implies a human Fc part that is not described) VHH: EVQLVESGGGLVQPGGSLRLSCAASGFTFTFRHYVMGWFRQAPGKEREFVAAISWSGSGSYYADSVKGRFTISRDNSKNTVYLQMNSLRAEDTAVYYCAADMTTRMSQASDEYDYWGQGTLVTVSS	binding result [8]: binds
binds	binds	R21448507 (VHH, ELISA detection with anti-human IgG Fc implies a human Fc part that is not described) VHH: EVQLVESGGGLVQPGGSLRLSCAASGFTFTFYHYVMGWFRQAPGKEREFVAAISWSGSGSYYADSVKGRFTISRDNSKNTVYLQMNSLRAEDTAVYYCAADMTTEMSQASREYDYWGQGTLVTVSS	
binds	binds	R21448513 (VHH, ELISA detection with anti-human IgG Fc implies a human Fc part that is not described) VHH: EVQLVESGGGLVQPGGSLRLSCAASGFTFTFYHYVMGWFRQAPGKEREFVADISWSGSGSYYADSVKGRFTISRDNSKNTVYLQMNSLRAEDTAVYYCAADMTTEMSQASREYDYWGQGTLVTVSS	
binds	binds	R21448502 (VHH, ELISA detection with anti-human IgG Fc implies a human Fc part that is not described) VHH: EVQLVESGGGLVQPGGSLRLSCAASGFTFTFYHYVMGWFRQAPGKEREFVAAISWSGSGSYYADSVKGRFTISRDNSKNTVYLQMNSLRAEDTAVYYCAADMTTRMSQASREYDYWGQGTLVTVSS	
binds	binds	R21448518 (VHH, ELISA detection with anti-human IgG Fc implies a human Fc part that is not described) VHH: EVQLVESGGGLVQPGGSLRLSCAASGFTFTFRHYVMGWFRQAPGKEREFVAAISWSGSGSYYADSVKGRFTISRDNSKNTVYLQMNSLRAEDTAVYYCAADMTTEMSQASDEYDYWGQGTLVTVSS	
binds	binds	R21448504 (VHH, ELISA detection with anti-human IgG Fc implies a human Fc part that is not described) VHH: EVQLVESGGGLVQPGGSLRLSCAASGFTFTFRHYVMGWFRQAPGKEREFVAAISWSGSGSYYADSVKGRFTISRDNSKNTVYLQMNSLRAEDTAVYYCAADMTTEMSQASREYDYWGQGTLVTVSS	
